Results published in paper PMC8459327, “Identification of molecular glues of the SLP76/14-3-3 protein–protein interaction” (RSC Medicinal Chemistry, 2021).
Read-outs that look alike come from different tables or passages of the source.

How the values were obtained:
[1] = target: T1, 14-3-3γ (Homo sapiens, UniProt P61981); assay: SPR binding assay of the SLP76-SH2 construct to 14-3-3γ; conditions: in the presence of 5% DMSO, extrapolated from binding curve
T1 sequence (P61981 1-247): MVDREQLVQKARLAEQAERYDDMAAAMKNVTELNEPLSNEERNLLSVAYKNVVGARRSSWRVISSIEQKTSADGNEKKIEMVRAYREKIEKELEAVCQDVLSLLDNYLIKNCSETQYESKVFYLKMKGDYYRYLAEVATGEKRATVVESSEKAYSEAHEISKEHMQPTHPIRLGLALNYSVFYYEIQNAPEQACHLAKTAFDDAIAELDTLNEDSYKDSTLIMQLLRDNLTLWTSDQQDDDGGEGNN
Description: Fig. 1 Assay set-up for the 14-3-3γ/SLP76 PPI. a) SPR binding assay of the SLP76-SH2 construct binding to 14-3-3γ in the presence of 5% DMSO. The KD value has been extrapolated from the binding curve reported on the right of the sensorgrams. b) HTRF assay set-up. The two proteins of interest, SLP76 and 14-3-3γ have been labelled with […], to generate a suitable matched pair of donor molecule (Tb) and acceptor molecule (AF647). The donor molecule, Tb labelled 14-3-3, is excited at the proper wavelength of 337 nm. When the acceptor is not in the proximity (no binding) no signal is detected. When SLP76 bound to 14-3-3 brings the acceptor molecule AF647 close to the donor, energy transfer occurs between the fluorophores pair. A radiation with the wavelength of 665 nm is consequently emitted to generate a read-out (665/620 nm). All HTRF protein systems used in this work are reported in the legend.
SPR experiments were performed on a Biacore T200 (Cytiva). The Sensor Chip NTA was validated as previously reported by Soini et al.[63] A DMSO tolerance at 2% and 5% was performed in the same way (Fig. S1 ^†). […]
confirming a DMSO tolerance of the 14-3-3γ/SLP76-SH2 system in an SPR context. A KD value calculated by […]

[2] = target: T1, 14-3-3γ; set-up: method as in Soini et al.; conditions: SPR, in absence of DMSO; ref Soini et al.; read-out: KD of SLP76-SH2 binding to 14-3-3γ; cited from earlier work

B1: SLP76-SH2: 20 KDa phosphorylated SLP76 protein construct (pSer376), binding partner of 14-3-3γ (protein)
chain: MPGAFSESNSSFPQSASLPPYFSQGPSNRPPIRAEGRNFPLPLPNKPRPPSPAEEENSLNEEWYVSYITRPEAEAALRKINQDGTFLVRDSSKKTTTNPYVLMVLYKDKVYNIQIRYQKESQVYLLGTGLRGKEDFLSVSDIIDYFRKMPLLLIDGKNRGSRYQCTLTHAAGYP
modifications: phospho-Ser376 (in vitro by HPK1); His6-SUMO tag cleaved; AF647 amine-labelled in HTRF; the segment is inferred to span Ser376 and the C-terminal SH2 domain to t
Kd [1]: 27.9 ± 1.5 nM | Kd [2]: 43 nM
